Experimental data taken from US20250011455A1 (HANGZHOU BANGSHUN PHARMACEUTICAL, published 2025).
Residue numbers refer to the chain shown, from its start. Numbers in names are those of the source.

T1: human CD39 on the cell surface (human, UniProt P49961 1-510)
T1 sequence (looked up): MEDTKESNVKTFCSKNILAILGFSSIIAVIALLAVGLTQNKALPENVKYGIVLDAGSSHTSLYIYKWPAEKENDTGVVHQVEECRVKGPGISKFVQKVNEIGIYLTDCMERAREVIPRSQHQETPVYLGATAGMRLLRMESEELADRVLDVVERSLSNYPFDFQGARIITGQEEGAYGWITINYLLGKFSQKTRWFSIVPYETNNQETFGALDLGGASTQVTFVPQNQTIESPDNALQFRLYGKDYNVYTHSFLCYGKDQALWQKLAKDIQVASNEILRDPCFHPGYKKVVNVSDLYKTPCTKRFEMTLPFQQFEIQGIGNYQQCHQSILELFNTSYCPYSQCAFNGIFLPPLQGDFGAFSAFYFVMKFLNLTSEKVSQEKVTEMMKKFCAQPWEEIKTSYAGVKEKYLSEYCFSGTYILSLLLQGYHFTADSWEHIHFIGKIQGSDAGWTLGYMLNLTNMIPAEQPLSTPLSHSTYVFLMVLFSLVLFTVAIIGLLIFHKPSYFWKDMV

T2: hCD39-ECD-His (ACRO, CD9-H52H4) (human, UniProt P49961 38-478)
T2 construct: extracellular domain; Bought protein; also called recombinant antigen; target antigen; not shown: His tag
T2 sequence (looked up): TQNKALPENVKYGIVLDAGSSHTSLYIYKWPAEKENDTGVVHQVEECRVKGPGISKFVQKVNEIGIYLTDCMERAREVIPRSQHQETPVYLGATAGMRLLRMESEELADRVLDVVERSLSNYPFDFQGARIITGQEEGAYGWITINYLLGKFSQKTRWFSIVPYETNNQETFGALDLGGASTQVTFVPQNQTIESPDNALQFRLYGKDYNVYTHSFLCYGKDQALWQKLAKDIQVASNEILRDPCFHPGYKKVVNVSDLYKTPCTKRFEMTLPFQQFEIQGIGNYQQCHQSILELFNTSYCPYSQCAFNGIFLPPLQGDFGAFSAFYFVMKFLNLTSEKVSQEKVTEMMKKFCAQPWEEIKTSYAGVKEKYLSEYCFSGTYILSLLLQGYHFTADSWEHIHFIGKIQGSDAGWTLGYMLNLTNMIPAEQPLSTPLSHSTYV

B1: humanized antibody F03-12 (antibody, human IgG4 S228P, kappa, V domains shown)
VH: QVQLVQSGAEVKKPGASVKVSCKASGYTFTNYWMYWVRQAPGQGLEWMGRIAPSSGATKYNEKFKNRVTLTVDTSISTAYMELSRLRSDDTAVYYCARSGIYYDYDWFFDVWGQGTTVTVSS
VL: DIQMTQSPSSLSASVGDRVTITCKASQDINKYIGWYQQKPGKAPKLLIHYTSTLQPGVPSRFSGSGSGRDYTFTISSLQPEDIATYYCLQYHALLFTFGQGTKLEIKR
notes: Human IgG4 (S228P) and human kappa constant regions
B2: humanized antibody F03-8 (antibody, human IgG4 S228P, kappa, V domains shown)
VH: B1 VH with M48I, V68A
VL: B1 VL with R69T, Y71F
notes: as for B1
B3: humanized antibody F03-15 (antibody, human IgG4 S228P, kappa)
heavy: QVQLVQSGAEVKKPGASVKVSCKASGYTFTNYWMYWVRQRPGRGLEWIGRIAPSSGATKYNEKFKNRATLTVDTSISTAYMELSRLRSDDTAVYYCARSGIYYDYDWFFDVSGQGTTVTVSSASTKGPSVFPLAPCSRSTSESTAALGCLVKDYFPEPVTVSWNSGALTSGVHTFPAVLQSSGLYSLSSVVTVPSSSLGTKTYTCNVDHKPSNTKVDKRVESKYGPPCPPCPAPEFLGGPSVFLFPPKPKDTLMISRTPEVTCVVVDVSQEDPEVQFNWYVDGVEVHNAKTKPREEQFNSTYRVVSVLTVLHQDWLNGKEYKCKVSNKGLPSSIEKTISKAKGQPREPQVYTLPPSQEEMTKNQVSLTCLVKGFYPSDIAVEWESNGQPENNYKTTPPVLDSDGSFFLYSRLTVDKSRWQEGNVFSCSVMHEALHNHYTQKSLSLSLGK
light: DIQMTQSPSSLSASVGDRVTITCKASQDINKYIGWYQQKPGKAPKLLIHYTSTLQPGVPSRFSGSGSGRDYTFTISSLQPEDIATYYCLQYHALLFTFGQGTKLEIKRTVAAPSVFIFPPSDEQLKSGTASVVCLLNNFYPREAKVQWKVDNALQSGNSQESVTEQDSKDSTYSLSSTLTLSKADYEKHKVYACEVTHQGLSSPVTKSFNRGEC
notes: as for B1
B4: humanized antibody F03-14 (antibody, human IgG4 S228P, kappa)
heavy: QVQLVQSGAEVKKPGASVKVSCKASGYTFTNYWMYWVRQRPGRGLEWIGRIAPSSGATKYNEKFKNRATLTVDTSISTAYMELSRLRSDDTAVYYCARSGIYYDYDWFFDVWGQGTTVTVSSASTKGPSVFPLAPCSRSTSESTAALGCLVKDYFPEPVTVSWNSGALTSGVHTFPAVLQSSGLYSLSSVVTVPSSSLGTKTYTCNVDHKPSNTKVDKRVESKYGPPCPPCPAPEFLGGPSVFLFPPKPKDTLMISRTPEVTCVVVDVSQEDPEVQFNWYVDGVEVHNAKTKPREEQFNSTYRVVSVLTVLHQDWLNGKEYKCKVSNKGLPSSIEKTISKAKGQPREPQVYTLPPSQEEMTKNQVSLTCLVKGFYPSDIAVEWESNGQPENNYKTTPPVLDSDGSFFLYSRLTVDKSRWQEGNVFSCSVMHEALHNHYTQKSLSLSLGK
light: B3 light
notes: as for B1
B5: humanized antibody F03-7 (antibody, human IgG4 S228P, kappa, V domains shown)
VH: B1 VH
VL: B1 VL with R69T, Y71F
notes: as for B1
B6: humanized antibody F03-13 (antibody, human IgG4 S228P, kappa, V domains shown)
VH: B1 VH with M48I, V68A
VL: B1 VL
notes: as for B1
B7: humanized antibody F03-6 (antibody, human IgG4 S228P, kappa, V domains shown)
VH: B1 VH with L70M, V72R
VL: B1 VL with R69T, Y71F
notes: Human IgG4 (S228P) heavy chain constant region and human kappa constant region
B8: humanized antibody F03-11 (antibody, human IgG4 S228P, kappa, V domains shown)
VH: B1 VH with L70M, V72R
VL: B1 VL
notes: as for B1
B9: chimeric antibody F03 (antibody, human IgG4 S228P, kappa, V domains shown)
VH: QVQLQQPGAELVKPGASVKLSCKTSGYTFTNYWMYWVKHRPGRGLEWIGRIAPSSGATKYNEKFKNKATLTVDKPSSTAYMQLSSLTSEDSAVYYCARSGIYYDYDWFFDVSGTGTTVTVSS
VL: DIQMTQSPSSLSASLGGKVTITCKASQDINKYIGWYQHAPGKGPRLLIHYTSTLQPGIPSRFSGSGSGRDYSLSISNLEPEDIATYYCLQYHALLFTFGSGTKLELKR
notes: Variable regions of murine mF03 on human IgG4 (S228P) and human kappa constant regions; expressed in CHO-S cells

Biological target: T1, human CD39 on the cell surface
Assay: cell-based or functional assay

Point of comparison: B8, “Enzymatic activity inhibition (EC50 nM)” value 0.03 nM. Against it:
- B1 — 2-fold higher, 0.06 nM
- B2 — 2-fold higher, 0.06 nM
- B3 — 1.5-fold lower, 0.02 nM
- B4 — 1.7-fold higher, 0.05 nM
- B5 — 5-fold higher, 0.15 nM
- B6 — 3-fold higher, 0.09 nM
- B7 — 3-fold higher, 0.09 nM
- B9 — 3-fold higher, 0.09 nM

Biological target: T1, human CD39 on the cell surface
Assay: FACS on SK-MEL-28 cells (natural human CD39)

Point of comparison: B4, EC50 0.79 nM. Against it:
- B1 — within 1.5-fold, 1.12 nM
- B2 — within 1.5-fold, 1 nM
- B3 — within 1.5-fold, 1.11 nM
- B5 — within 1.5-fold, 0.89 nM
- B6 — within 1.5-fold, 1 nM
- B7 — 1.6-fold higher, 1.27 nM
- B8 — within 1.5-fold, 0.94 nM
- B9 — 2.6-fold higher, 2.07 nM

Biological target: T2, hCD39-ECD-His (ACRO, CD9-H52H4)
Assay: SPR, Biacore 8K, antibody captured by anti-human IgG Fc, hCD39-ECD-His as analyte
Method: The binding kinetics between humanized antibodies and a recombinant antigen were tested using Biacore 8K (GE, biomolecule interaction analyzer). Specifically, an anti-human IgG Fc antibody was directly immobilized on a biosensor chip to capture a test antibody. The antigen hCD39-ECD-His (ACRO, CD9-H52H4) was used as the mobile phase, and 7 concentration gradients (at an initial concentration of 200 nM, 2-fold gradient dilution) were used. The association rate constant ka (M⁻¹ s⁻¹) and dissociation rate constant kd (s⁻¹) were determined. Then, based on the formula KD=kd/ka and the kinetic rate constants, the equilibrium dissociation constant KD (M) of the reaction between the antibody and the relevant target protein was calculated. The humanized antibodies of the present invention maintained high affinity of the chimeric antibody F03 for the target antigen.

Point of comparison: B1, Kd 3.68 nM. Against it:
- B3 — within 1.5-fold, 3.33 nM
- B4 — within 1.5-fold, 4.43 nM
- B8 — within 1.5-fold, 4.2 nM
- B9 — within 1.5-fold, 2.67 nM

Point of comparison: B8, koff 0.000336 s⁻¹. Against it:
- B1 — within 1.5-fold, 0.000331 s⁻¹
- B3 — 1.9-fold lower, 0.000176 s⁻¹
- B4 — within 1.5-fold, 0.00031 s⁻¹
- B9 — within 1.5-fold, 0.000252 s⁻¹

Point of comparison: B8, kon 80100 M⁻¹ s⁻¹. Against it:
- B1 — within 1.5-fold, 89900 M⁻¹ s⁻¹
- B3 — 1.5-fold lower, 52800 M⁻¹ s⁻¹
- B4 — within 1.5-fold, 69800 M⁻¹ s⁻¹
- B9 — within 1.5-fold, 94300 M⁻¹ s⁻¹

Biological target: T1, human CD39 on the cell surface
Assay: FACS on CHOK1-hCD39 cells, FITC-labelled goat anti-human IgG Fc secondary antibody, mean fluorescence intensity (MFI)
Method: The binding of the chimeric antibody F03 of the present invention to CD39 on the cell membrane surface was assayed by FACS. Specifically, CHOK1-hCD39 cells were collected and added to a 96-well plate at 1-3×10⁵ cells/well, the serially diluted chimeric antibody F03 (diluted with 1×PBS to 16.7 μg/mL as an initial concentration, 3-fold gradient dilution) was added, and the mixture was incubated at 4° C. for 30 min; after washing with PBS, an FITC-labeled goat anti-human IgG Fc secondary antibody (Jackson Immunoresearch, 109095008) diluted at 1:200 was added, and the resulting mixture was incubated at 4° C. for 30 min; after washing with PBS, the cell fluorescence intensity was detected using an FACS instrument (Beckman). Data were processed by GraphPad software.

Work on B9 yielded an EC50 of 2.19 µg/mL.
